In patent US20230104769A1 (MABWELL SHANGHAI BIOSCIENCE, published 2023):

Legend:
[1] = biological target: T1, full-length human PD-1 N58A expressed on HEK293 cells (human, UniProt Q15116 25-288); assay: flow cytometry on transfected HEK293 cells
T1 construct: whole, on cells; Expression vector carries EGFP; the mutation removes the N-glycosylation site; also called PD-1-mut N58A
Description: (§1) The mutants obtained were inserted into an expression vector carrying EGFP to construct five plasmids expressing full-length human PD-1 (WT, N49A, N58A., N116A, N74A). […] 2 days after the transfection, the cells were collected to a 96-well plate, centrifuged at 1500 rpm for 2 minutes, and the supernatants in the wells were discarded. […] The working concentration of the primary antibodies was 2 μg/ml, and cells without primary antibodies added were used as negative controls. The mixtures obtained were centrifuged at 1500 rpm for 2 minutes, and supernatants were discarded. The cells in each well were resuspended by adding 200 μl PBS and the suspensions obtained were then centrifuged at 1500 rpm for 2 minutes, then supernatants were discarded. Later, the obtained cells were incubated with 200 μl goat anti-human IgG(Fc)-Cy5 (Cat: 12136, Lot: 017M4800V, Sigma) diluted with 5% BSA added into each well for 1 h at room temperature, then centrifuged at 1500 rpm for 2 minutes, and supernatants were discarded. The cells were resuspended by adding 200 μl PBS and the suspensions obtained were then centrifuged at 1500 rpm for 2 minutes, then supernatants were discarded. The cells again were resuspended by adding 200 μl PBS thereto and detected by flow cytometry (B49007AD, SNAW31211).

[2] = biological target: T2, rat PD-1 (Cat: 80448-R08H, Sino Biological Inc.) (rat, UniProt D3ZIN8 25-169); assay: ELISA, plate coated with the PD-1 protein at 1 µg/mL, biotinylated h317, HRP-streptavidin
T2 construct: Bought recombinant protein; also called recombinant rat PD-1; not shown: The vendor's tag
T2 sequence: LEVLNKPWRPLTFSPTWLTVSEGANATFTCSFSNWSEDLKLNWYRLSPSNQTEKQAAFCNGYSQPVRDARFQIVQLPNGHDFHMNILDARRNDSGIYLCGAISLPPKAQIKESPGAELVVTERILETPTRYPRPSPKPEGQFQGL
Description: (§2) The plates were washed three times with PBS subsequently, and 5% BSA-PBS was added for blocking for 60 min at 37° C. […] Again, the plates were washed four times with PBST, then HRP-streptavidin (Cat: 019-035-098, Jackson immuno Research) with a dilution of 1:100 was added for a 30 min incubation at 37° C. Once again, the plates were washed four times with PBST, and TMB substrate was added for developing color through incubating for 10 min at 37° C., then the reaction was terminated by adding 2 M HCl. With 630 nm as reference wavelength, the absorbance at a wavelength of 450 nm (A450 nm-630 nm) of each well in the plates was read and recorded.

[3] = biological target: T3, mouse PD-1 (Cat: 50124-M08H, Sino Biological Inc.) (mouse, UniProt Q02242 25-167); assay: as above
T3 construct: Bought recombinant protein; also called recombinant mouse PD-1
T3 sequence (looked up): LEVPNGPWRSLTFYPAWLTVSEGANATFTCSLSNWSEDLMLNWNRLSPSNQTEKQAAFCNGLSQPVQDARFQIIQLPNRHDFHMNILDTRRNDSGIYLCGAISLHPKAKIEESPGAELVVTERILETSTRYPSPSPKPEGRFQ
Description: as §2

[4] = biological target: T4, N74A; assay: flow cytometry on transfected HEK293 cells, antibody 2 µg/ml, goat anti-human IgG(Fc)-Cy5; no negative-control bar is drawn
T4 construct: also called full-length human PD-1 N74A expressed on HEK293 cells; PD-1-mut N74A; not shown: EGFP of the expression vector, if it is fused to PD-1
Description: as §1

[5] = biological target: T5, N116A; assay: as above
T5 construct: also called full-length human PD-1 N116A expressed on HEK293 cells; PD-1-mut N116A; not shown: EGFP of the expression vector, if it is fused to PD-1
Description: as §1

T1 sequence (Q15116 25-288 N58A): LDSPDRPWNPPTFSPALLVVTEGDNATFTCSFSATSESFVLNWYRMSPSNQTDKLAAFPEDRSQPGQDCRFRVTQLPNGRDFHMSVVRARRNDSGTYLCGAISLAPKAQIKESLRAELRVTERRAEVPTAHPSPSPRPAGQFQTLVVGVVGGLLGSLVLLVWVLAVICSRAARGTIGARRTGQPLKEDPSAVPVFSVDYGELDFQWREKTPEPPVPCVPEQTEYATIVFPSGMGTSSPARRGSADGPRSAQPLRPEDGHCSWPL
T4 sequence (chain, as listed by the source N74A N74A limits assumed): as the sequence (Q15116 25-288 N58A) above, with A34N, N50A counted along it
T5 sequence (chain, as listed by the source N116A N116A limits assumed): as the sequence (Q15116 25-288 N58A) above, with A34N, N92A counted along it

binding result [1]: no binding (tested: 2 µg/ml)
binding result [4]: binds
binding result [5]: binds
B1: h317 (humanized anti-human PD-1 antibody) (antibody, V domains shown)
VH: EVQLVESGGGLVKPGGSLRLSCAASGFTFSSYDMSWVRQAPGKGLEWVATISGGGSYTYYPDSVKGRFTISRDNAKNSLYLQMNSLRAEDTAVYYCASPDSSGVAYWGQGTLVTVSS
VL: DIVMTQSPLSLPVTPGEPASITCKASQDVETVVAWYLQKPGQSPRLLIYWASTRHTGVPDRFSGSGSGTDFTLKISRVEAEDVGVYYCQQYSRYPWTFGQGTKL
notes: also called h317-biotin; biotinylated h317
binding result [2]: no binding (tested: 1 nM (log(nM) 0 on the axis))
binding result [3]: no binding (tested: 1 nM (log(nM) 0 on the axis))
